# Results reported in paper doi:10.1101/2025.07.08.663041.
# What was measured:
# Caveolin-1 L125C 98W = Caveolin-1 L125C 98W (UniProt Q03135)
# Caveolin-1 I121C 98W = Caveolin-1 I121C 98W (UniProt Q03135)
substance,measurement,setting,value
Caveolin-1 L125C 98W (from UniProt Q03135 1-178) (natural protein),stoichiometry N,Caveolin-1 L125C 98W,2
Caveolin-1 I121C 98W (from UniProt Q03135 1-178) (natural protein),stoichiometry N,Caveolin-1 I121C 98W,2
